This series has as its target free tubulin (tubulin dimers) of isolated rat cardiomyocytes.

B1: tubulin tyrosine ligase (TTL) (protein)
chain: MYTFVVRDENSSVYAEVSRLLLATGHWKRLRRDNPRFNLMLGERNRLPFGRLGHEPGLVQLVNYYRGADKLCRKASLVKLIKTSPELAESCTWFPESYVIYPTNLKTPVAPAQNGIQPPISNSRTDEREFFLASYNRKKEDGEGNVWIAKSSAGAKGEGILISSEASELLDFIDNQGQVHVIQKYLEHPLLLEPGHRKFDIRSWVLVDHQYNIYLYREGVLRTASEPYHVDNFQDKTCHLTNHCIQKEYSKNYGKYEEGNEMFFKEFNQYLTSALNITLESSILLQIKHIIRNCLLSVEPAISTKHLPYQSFQLFGFDFMVDEELKVWLIEVNGAPACAQKLYAELCQGIVDIAISSVFPPPDVEQPQTQPAAFIKL
Take B1: the “free:polymerized tubulin ratio (microtubule fractionation assay, western blot, isolated rat cardiomyocytes)” value was “Both TTL and TTL-E331Q overexpression increased the amount of free tubulin relative to polymerized microtubules”.

B2: TTL catalytic-dead construct (TTL-E331Q) (protein)
chain: MYTFVVRDENSSVYAEVSRLLLATGHWKRLRRDNPRFNLMLGERNRLPFGRLGHEPGLVQLVNYYRGADKLCRKASLVKLIKTSPELAESCTWFPESYVIYPTNLKTPVAPAQNGIQPPISNSRTDEREFFLASYNRKKEDGEGNVWIAKSSAGAKGEGILISSEASELLDFIDNQGQVHVIQKYLEHPLLLEPGHRKFDIRSWVLVDHQYNIYLYREGVLRTASEPYHVDNFQDKTCHLTNHCIQKEYSKNYGKYEEGNEMFFKEFNQYLTSALNITLESSILLQIKHIIRNCLLSVEPAISTKHLPYQSFQLFGFDFMVDEELKVWLIQVNGAPACAQKLYAELCQGIVDIAISSVFPPPDVEQPQTQPAAFIKL
On to B2, for which the “free:polymerized tubulin ratio (microtubule fractionation assay, western blot, isolated rat cardiomyocytes)” value was “Both TTL and TTL-E331Q overexpression increased the amount of free tubulin relative to polymerized microtubules”.

(Values after US20230140435.)
